Assay results published in patent US20120164688A1 (Regeneron, published 2012).

B1: REGN475 (antibody, human IgG4 S228P)
heavy: not shown
VL: DIQMTQSPSSLSASAGDRVTITCRASQAIRNDLGWYQQKPGKAPKRLIYAAFNLQSGVPSRFSGSGSGTEFTLTISSLQPEDLASYYCQQYNRYPWTFGQGTKVEIKR
B2: human neurotrophin-3 (NT-3) (ligand, UniProt P20783 139-257, looked up)
chain: YAEHKSHRGEYSVCDSESLWVTDKSSAIDIRGHQVTVLGEIKTGNSPVKQYFYETRCKEARPVKNGCRGIDDKHWNSQCKTSQTYVRALTSENNKLVGWRWIRIDTSCVCALSRKIGRT
notes: also called human NT-3

Columns and labels:
[1] = biological target: B2; test: BIACORE SPR
[2] = biological target: T1, human nerve growth factor (NGF) (human, UniProt P01138 122-241); test: BIACORE blocking; % free NGF bound to TrkA-hFc chip
T1 construct: range 122-241; biotin-labeled in OCTET and ELISA assays; also called human NGF; biotin-NGF
Text: (§1) To identify blocking antibodies, a receptor blocking assay was designed using a BIACORE™ 3000 instrument. Recombinant human TrkA-hFc and human p75-hFc proteins were amine-coupled to a CM5 chip to a density of about 5000-6000 RU.

[3] = biological target: T1, human nerve growth factor (NGF); test: competition ELISA; 50 pM biotin-NGF, hp75-hFc plate
Procedure: (§2) Specifically, the microtiter plates were prepared by coating the plates with 0.5 μg/ml hTrkA-hFc or 1 μg/ml hp75-hFc solution in PBS buffer overnight at 4° C., followed by blocking the plates with 0.5% BSA prior to use.

[4] = biological target: T1, human nerve growth factor (NGF); test: BIACORE SPR; purified mAb
Procedure: (§3) Antibodies were captured on either a goat, anti-human or anti-mouse IgG polyclonal antibody surface created by direct amine coupling of the capture antibody to a BIACORE™ chip. […] Kinetic analysis was performed to obtain the equilibrium dissociation constant (KD) and dissociation rate constant, and the latter was used to calculate the antigen/antibody complex dissociation t_{1/2} (Table 1).

[5] = biological target: T1, human nerve growth factor (NGF); test: BIACORE blocking; % free NGF bound to p75-hFc chip
Text: as §1

[6] = biological target: T1, human nerve growth factor (NGF); test: competition ELISA; 50 pM biotin-NGF, hTrkA-hFc plate
Procedure: as §2

[7] = biological target: T2, rat NGF (rNGF) (rat, UniProt P25427 122-241, limits assumed); test: BIACORE SPR; purified mAb
[8] = biological target: T1, human nerve growth factor (NGF); test: BIACORE SPR; purified mAb; remark: listed apart in the source
[9] = biological target: T3, mouse NGF (mNGF) (mouse, UniProt P01139 122-241, limits assumed); test: BIACORE SPR; purified mAb
[10] = biological target: B2; test: BIACORE; 20 nM NT-3 + 500 nM agent, % NT-3 bound to TrkA-hFc chip
Procedure: (§4) Human TrkA-hFc (9300 RU), human TrkB-hFc (6000 RU), human TrkC-hFc (9100 RU) and human p75-hFc (7500 RU) were covalently coupled to BIACORE® CM5 chip surfaces by amine-coupling procedure. […] The binding mixture was first incubated at room temperature to reach equilibrium (about 1 hr) and then was injected over the above TrkA-hFc, TrkB-hFc, TrkC-hFc and p75-hFc surfaces.

[11] = biological target: B2; test: BIACORE; 20 nM NT-3 + 500 nM agent, % NT-3 bound to TrkC-hFc chip
Procedure: as §4

[12] = biological target: B2; test: BIACORE; 20 nM NT-3 + 500 nM agent, % NT-3 bound to p75-hFc chip
Procedure: as §4

[13] = biological target: B2; test: BIACORE; 20 nM NT-3 + 500 nM agent, % NT-3 bound to TrkB-hFc chip
Procedure: as §4

[14] = biological target: T1, human nerve growth factor (NGF); test: BIACORE SPR; mAb captured, 20 nM NGF
Procedure: (§5) Briefly, goat anti-human IgG polyclonal antibody was chemically linked to a CM5 chip. […] Both association and dissociation phases were monitored and data were analyzed.

[15] = biological target: B2; test: BIACORE SPR; mAb captured, NT-3 injected
Procedure: as §5

[16] = biological target: T2, rat NGF (rNGF); test: BIACORE SPR
Procedure: as §3
(§6) The binding affinities of the antibodies to both mNGF and rNGF were determined as described above.

[17] = biological target: T1, human nerve growth factor (NGF); test: BIACORE SPR
Procedure: as §3, §6

[18] = biological target: T3, mouse NGF (mNGF); test: BIACORE SPR
Procedure: as §3, §6

[19] = biological target: T1, human nerve growth factor (NGF); test: BIACORE SPR; complex dissociation half-life
Procedure: as §3

[20] = biological target: T1, human nerve growth factor (NGF); test: cell-based or functional assay
[21] = biological target: T1, human nerve growth factor (NGF); test: BIACORE SPR; mAb captured, human NGF injected
Procedure: as §3

[22] = biological target: T1, human nerve growth factor (NGF); test: cell-based or functional assay; remark: listed apart in the source
[23] = biological target: B2; test: OCTET solution competition against biotin-NGF sensor
Procedure: (§7) Changes in the thickness of the biological layer were measured after incubation. The binding was normalized as a percentage of binding relative to the binding of antibody in absence of competitor.

[24] = biological target: T4, humanized anti-human NGF monoclonal antibody E3 ("RN624") (tanezumab; CAS Registry No. 880266-57-9); test: OCTET; % RN624 binding to biotin-NGF sensor, no competitor (reference)
T4 construct: control antibody; also called Control (RN624); Control mAb (RN624)
Procedure: as §7

[25] = biological target: B1; test: OCTET; % REGN475 binding to biotin-NGF sensor, no competitor (reference)
Procedure: as §7

T3 sequence (P01139 122-241 limits assumed): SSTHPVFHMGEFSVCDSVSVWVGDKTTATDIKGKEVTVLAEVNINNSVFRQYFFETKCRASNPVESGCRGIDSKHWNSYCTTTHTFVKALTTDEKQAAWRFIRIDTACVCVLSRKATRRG
T2 sequence (P25427 122-241 limits assumed): as the sequence (P01139 122-241 limits assumed) above, with A40G, R50K, S61P, E94D, T117A counted along it
T1 sequence (P01138 122-241 limits assumed): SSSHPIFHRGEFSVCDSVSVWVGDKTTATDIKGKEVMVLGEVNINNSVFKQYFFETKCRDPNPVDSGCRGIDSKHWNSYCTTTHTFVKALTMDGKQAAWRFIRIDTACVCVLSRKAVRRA
T1 sequence (P01138 122-241 limits assumed): as above

| Binder | binding result [1] | % Binding TrkA-hFc [2] [%] | IC50 [3] [pM] | Kd [4] [pM] | t1/2 [4] [h] | % Binding p75-hFc [5] [%] | IC50 [6] [pM] | Kd [7] [pM] | Kd [8] [pM] | Kd [9] [pM] | % binding [10] [%] | % binding [11] [%] | % binding [13] [%] | IC50 (pM), PC12 SRE-luciferase [22] [pM] | other results |
| --- | --- | --- | --- | --- | --- | --- | --- | --- | --- | --- | --- | --- | --- | --- | --- |
| REGN476 (antibody, human IgG4 S228P, V domains shown) VH: EVQLVESGGGLVQPGRSLRLSCAAPGFNFDDYAMHWVRQAPGKGLEWVSGISWNSGTIGYADSVKGRFTISRDNAKNSLYLQMNSLRAEDTALYYCAKEGVWFGKLFSSYGMDVWGQGTTVTVSS VL: not shown | no binding (tested: 1.25 nM to 40 nM) | 6 | 61 | 8.91 | 4 | 13 | 65 | 155 | 8.91 | 115 |  |  |  |  |  |
| REGN477 (antibody, human IgG4 S228P) heavy: not shown VL: EIVMTQSPATLSVSPGERATLSCRASQSVTYNLDWYQQKPGQAPRLLIFGASTRATGIPARFSGSGSGTEFTLTITSLQSEDFAVYYCQQYNNWPYTFGQGTKLEIKR | no binding (tested: 1.25 nM to 40 nM) | 9 | 62 | 7.98 | 4 | 13 | 65 | 164 | 7.98 | 133 |  |  |  |  |  |
| recombinant human TrkA-hFc (Fc fusion, UniProt P04629 33-423, looked up, extracellular domain; dimeric fusion protein; also called hTrkA-hFc; not shown: Fc portion of human IgG1) AAPCPDACCPHGSSGLRCTRDGALDSLHHLPGAENLTELYIENQQHLQHLELRDLRGLGELRNLTIVKSGLRFVAPDAFHFTPRLSRLNLSFNALESLSWKTVQGLSLQELVLSGNPLHCSCALRWLQRWEEEGLGGVPEQKLQCHGQGPLAHMPNASCGVPTLKVQVPNASVDVGDDVLLRCQVEGRGLEQAGWILTELEQSATVMKSGGLPSLGLTLANVTSDLNRKNVTCWAENDVGRAEVSVQVNVSFPASVQLHTAVEMHHWCIPFSVDGQPAPSLRWLFNGSVLNETSFIFTEFLEPAANETVRHGCLRLNQPTHVNNGNYTLLAANPFGQASASIMAAFMDNPFEFNPEDPIPVSFSPVDTNSTSGDPVEKKDETPFGVSVAVG |  |  |  |  |  |  |  |  |  |  | 21 | 3 | 5 |  | % binding [12]: 7% |
| 301272-3H10-A10 (antibody, also called REGN261) heavy: not shown VL: DIRMTQSPSSLSASAGDRVTITCRASQAIRNDLGWYQQKPGKAPKRLIYAAFNLQSGVPSRFSGSGSGTEFTLTISSLQPEDLASYYCQQYNRYPWTFGQGTKLEIK |  | 1 |  |  |  | 2 |  |  |  |  |  |  |  |  | Kd [14]: 0.1 pM; binding result [15]: no binding (tested: 20 nM); Kd [16]: 0.6 pM; Kd [17]: 0.1 pM; Kd [18]: 0.2 pM; t1/2 [19]: 25.2 h; MG87 IC50 [20]: < 186 pM; PC12 IC50 [20]: 9 pM; Kd [21]: 0.1 pM |
| REGN472 (antibody, human IgG1) heavy: not shown VL: DIQMTQSPSSLSASVGDRVTITCRASQAIRNDLGWYQQKPGKAPKRLIYAAFNLQSGVPSRFSGSGSGTEFTLTISSLQPEDFATYYCQQYNRYPWTFGQGTKVEIKR | no binding (tested: 1.25 nM to 40 nM) | 4 | 12 | 0.41 | 30 | 7 | 12 | 3.96 | 0.41 | 0.61 |  |  |  | 4.5 |  |
| REGN474 (antibody, human IgG4 S228P) heavy: not shown VL: DIQMTQSPSSLSASVGDRVTITCRASQAIRNDLGWYQQKPGKAPKRLIYAAFNLQSGVPSRFSGSGSGTEFTLTISSLQPEDFATYYCQQYNRYPWTFGQGTKVEIKR | no binding (tested: 1.25 nM to 40 nM) | 6 | 6.3 | 0.41 | 31 | 9 | 8.1 | 3.42 | 0.41 | 0.43 |  |  |  | 6.6 |  |
| B1 |  | 6 | 22 | 0.18 | 57 | 10 | 20 | 0.93 | 0.18 | 0.36 | 90 | 101 | 99 | 9.6 | binding result [23]: no binding (tested: 0 to 4 µM) |
| human brain derived neurotrophic factor (hBDNF) (ligand, UniProt P23560 129-247, looked up) HSDPARRGELSVCDSISEWVTAADKKTAVDMSGGTVTVLEKVPVSKGQLKQYFYETKCNPMGYTKEGCRGIDKRHWNSQCRTTQSYVRALTMDSKKRIGWRFIRIDTSCVCTLTIKRGR |  |  |  |  |  |  |  |  |  |  |  |  |  |  | RN624 % Binding [24]: 100%; REGN475 % Binding [25]: 100% |
| recombinant human p75-hFc (Fc fusion, UniProt P08138 29-250, looked up, extracellular domain; dimeric fusion protein; also called hp75-hFc; not shown: Fc portion of human IgG1) KEACPTGLYTHSGECCKACNLGEGVAQPCGANQTVCEPCLDSVTFSDVVSATEPCKPCTECVGLQSMSAPCVEADDAVCRCAYGYYQDETTGRCEACRVCEAGSGLVFSCQDKQNTVCEECPDGTYSDEANHVDPCLPCTVCEDTERQLRECTRWADAECEEIPGRWITRSTPPEGSDSTAPSTQEPEAPPEQDLIASTVAGVVTTVMGSSQPVVTRGTTDN |  |  |  |  |  |  |  |  |  |  | 14 | 2 | 2 |  | % binding [12]: 4% |
| B2 |  |  |  |  |  |  |  |  |  |  |  |  |  |  | RN624 % Binding [24]: 100%; REGN475 % Binding [25]: 100% |
